Measured values: the DeepSol protein solubility set

Experiment: soluble on expression in E. coli; label from the status in PepcDB or PDB records

Sequence	soluble on expression in E. coli
MGSDKIHHHHHHMNRDTERTTMEGEHLYSPKNDDAPPAPAPDSPASLLDELIEAARVKRDEEAYPITRHGIEAFVAHLARPKRPIETVSQATIDDMIAEIDRKLCRQVDAILHHPDFQQLESTWRSLKFLVERTDFRENIKIQFLDVGKAALLDDFDDSPDITKSGLYQKVYAAEYGQFGGQPIGAIVANYTFGPGAQDVKLLQYVASTSAMAHTPFIAAAGPAFFGIDSFGKLPNVKDLASLFEGPQFAKWNAFRESEDARYVGLTLPRFLLRLPYGANTTPVKRFNYDERVDGGDADFLWGNAAFAFATRLTASFADYRWCANVIGPKGGGTVADLPLYAYEAMGEIQNKIPTDVLISERREFELAEQGFIALTMRKHSDNAAFFSANSTQKPKFFGISKEGKDAELNYRLGTQLPYIFVVNRLAHYIKVIQRENIGTWKERGDLEQELNQWIRQYVADMDNPTEGVRSRRPLRQAEIFVSDVEGEPGWYRVDMKVRPHFKYMGASFTLSLVGKLEKR	not soluble
MGSDKIHHHHHHMNRLIGEKMNDVLSKVTDKEYLKQIEDVIKFHGHLSGGAFIGIQMYNIAKKVLDIKDTDRVYANCETRNCMPDAFQVLGNCTTGNKRLSIKDYDIMAVTVNKIIPENEVGTGVRIVFDHKKAEKYPALYNWFMNIKKVPHEEVISDLIDAGDSIYSWKSVEIHVSEKKPKFSAVCGLCGESFIKKGTDDENICPNCAEKSAE	not soluble
MGSDKIHHHHHHMNSGGYMAIPPGAILPESLPEFKIFMRNREGKYVLWAADGNRVTVAQLAKLSESGVQDVFVDIEESFKYEQYLEANLGKILDNQGITVDRKAAIFSRVSTNVVKAAFETSLKSGAMGMETLQRTQKMIENAMKFITDSNSLPALAKMIGHDYETYEHAMKVTWWTVAFISENPEILTYCQKDEISDAEQISETLRSCGVCALLHDIGKAYVPQEVINKNGPLTEIEWEIMKRHPLSGLAMLLDSELPAFVKKAIVQHHEDFDGGGYPMNLEGTNITVLARVLRIMDVFDAMTSRRPYKDPLSPMKVIQIMIGTPSHPEDNAEPAQDPRDRGMGRCFDHELLGKFIIFIGNVKLD	not soluble
MGSDKIHHHHHHMNTLTDILNRPRKLRPECLLIVGDSNMGKTTIIHEFARQYYTKTVSDADMDLLSVTKPVLPILAPAKANVKELYINILNHFFVPFRASDPEAKLRNQAVHLMRKYETKMLIIDEIHNCLTGSAKLLPEVMNTLKNLSNELSLNIVGVGTREAITILHTDPQYASRFDVVNLPKWELNQDFLRLLVSYVRLLPLKKQSNLASKEIATLIFEVSGGNLGDLNRLLVECAKEAILQGDEEITYDIVHKFKWLKPTEGLRNIRNINLSLS	not soluble
MGSDKIHHHHHHMNTPREVTLHFLRTAGHPLTRWALQRQPPSPKQLEEEFLKIPSNFVSPEDLDIPGHASKDRYKTILPNPQSRVCLGRAQSQEDGDYINANYIRGYDGKEKVYIATQGPMPNTVSDFWEMVWQEEVSLIVMLTQLREGKEKCVHYWPTEEETYGPFQIRIQDMKECPEYTVRQLTIQYQEERRSVKHILFSAWPDHQTPESAGPLLRLVAEVEESPETAAHPGPIVVHCSAGIGRTGCFIATRIGCQQLKARGEVDILGIVCQLRLDRGGMIQTAEQYQFLHHTLALYAGQLPEEPSP	soluble
MGSDKIHHHHHHMNTSGWGKYPEIEAQVLTPSSEKALQDLIGTGSYDGVTPRGLGRSYGDSSLGKLMVKTLRLNHMLSFELQSGLLHCQSGVSLAEILEVFVPRGWFLPVTPGTKLVTVGGAIASDIHGKNHHIDGCFCDHVDFLDLLTGSGEIIRCSPHEQAQLFHATCGGMGLTGIILSAAIRLTPIKSAYIDQVTFKSANLGESFELFEKQAEQPYSVAWIDCISSGDKLGRSLLMTGKHAQHGALAAHHNPGLSVPLDLPSFILNPYSIKAFNTLYYHKARQRETHATVHYDPFFYPLDGIGHWNRMYGKNGFTQYQFVIPKEAGLQAMDLILRTIVNSKKGSFLAVLKAFGKENRNLLSFPMEGYTLALDFKIEPDLFPLLDRLDAMVLDHGGRLYLTKDARMNAETFRKCYPKWEQFQNIRQQYGARHTFLSMQSQRLGLD	not soluble
MGSDKIHHHHHHMNVFATLKTVFFGSKFLSSPVPIDGTPRRDLVSALNGLMPLCRTIPGVRLALDIREGQVVLALNWTPRTDGNAPTGSYHYIVSDEDGVREMADSQVLLTENGKDNLPGSMDDSRTHPTVSTEKTEKDSAHLKKDVQKKAGPTSPEDTGKKAKSHTLMQEVTAFLTSRYRFRFNVLTEETEVASVENNIPDTHLRYAKVDERWMNSLSLEAIETGIDCWDRDIQRFVRSRRISEYHPFTAYFEQLPEWDGTDRVSALARRVSDDPVWVNGFHRWMLGLSAQWMQLNPDNNRANSVAPLLVSSRQGLGKSTFCRLLMPDRLKSYYTESYDLSSPTSAEAKLAAYGLINLDEFDKLGASKMPLLKNLMQASALNIRKAYKHSASSLPRIASFIGTSNREDLLVDRTGSRRFLCVSLKHAIDCTTSVEHKQLYAQLKTELLSGERSWFNKEEEQTIQQHNALFYKHVPEEEVFRLCFRFATEEDNPQEVLSLSATQLFERMKAAHPSIMRGMTAYSLSRILPQLGERVHTTKGNVYRVVEC	not soluble
MGSDKIHHHHHHMNWDDIKIFLEVARAERLSTAAKRLTMDASTVSRRLHKLEESIATKLFDRTQDGHVLTPDGEMLLTSACKMEQDAQHALSSIHNNNEENCGLVRIGVTEALGNFFVSPNLLTLQQQHPSIDVHLLLFSRYVKISRNEADIAIAVERPKSTSMIVSKLCDYKLQLYVHQDYLDHNLKQYPQGITLDNLAEHKWVTYVDNLIFTDQLSYIKELDRYLSGELKANFSSTSIISQYFAIKSGLGIGILPCFLADQDKSLIKLHSQDITISRSFWLVTHPESKRLSHVNTVWQYLKQLVLEHAELLNPKE	not soluble
MGSDKIHHHHHHMNYFSYLSLEERQNFFYKEPLSFSKNIEKEQLAYALGATLYTPGTKETIAEDIIRKKHVEATSIIFCLEDSISDKEVKFAEQNIVFQIQQISNLVSDNILNQADIPLLFIRVRQPSQMRTIVTELGSAVHCLCGFVFPKFTPVNGKSYIDQLAYINKLYSLSLYGMPILESPEIMYRETRVKSLLQIKDLLDSYRDYILNVRIGATDFSSIFGIRRNKHTPIYHITVVRDCISDIINIFSRATNGYVISGCVWEYFSNDYEEGLIQEVSLDHANGLIGKTVIHPSHIKVVQAMHIVTMEDYLDARSILQHANTYNGVLKSSFANKMNEVKPHYNWARKTILKSNIYGVLHENKQFTDLLITNAKQHV	not soluble
MGSDKIHHHHHHMNYKNRKRAYYQENSCMDNFICKNCGCLVVPEGAGTQHRNHCPHCLHSLHVDIIPGDRAADCDANMEPIGVWVRKNGEWAIIHRCTRCGHLSSNRIAADDNSVKLMSIALKPLAQPPFPLERIIEKLEKEETE	not soluble
MGSDKIHHHHHHMPAFNQHDLSHFVGKHLIYTYDNGWNYELYVKNANTIDYRIHSGIVGNRWVKDQQVYIVQVAREVYKISWTEPTGTDVSLIANIADKVFHGTIFFPRWVINNPEKTVCFQNEHIAEMEAYRDAGPAYPTEVIDEFATITFIRDCGENNNDVINCPASELPADFPACLKK	not soluble
MGSDKIHHHHHHMPAKVYFTDMTTNPNMNMLQKLELLLKKVELEKIIEKDKFVAVKLHFGEYGNLAFIRPQYVKIIVDQIKKLGGKPFLTDANTLYTGHRSNAVDHLINAYLNGFTYEVTGAPVIIADGLRGSDEIKVKIDGNYVKEAKIGAAIALADAIVAVTHFKGHEATGFGGTIKNVGMGSASRAGKMEQHSESKPYVVEEKCVACGTCAKFCPVGAITVTKVAKIDYEKCIGCGQCIAMCSYGAMSPKWDSSTDSLSKKMAEYAKAVLKDKKAVFISFIMNISPDCDCWNMNKPPVAPDIGIAVSTDPVALDQACIDLVLQKTGKDPFLEVHPDVTWKTQLEYAEEIGLGTREYELVKVACDLK	not soluble
MGSDKIHHHHHHMPDSPTTTSTLDLELLRTFVAVVDQHSFAQAGAHLARTQSSVTQHMQRLEQQTGVSLFQKKGRHKQLTESGRQLLRHARQMLSLNDDALNSLRDSSLSGVLRIGSPHDIADTILPPLLSHIARSAPRLRLEIDVGRSPFLMDDLHRGKVDMVISTREDPTLEGFALRTSPVWWICSAQYIHVPGEPLPLILVDEPSIYRRYALHALEAANIPWRQAYLASNLIGIKAATRAGLGVTPRSMEMLGPDMRVLGESEGLPRLPDVTYHLWIRPNTLNPLARKAYELIRASQSL	not soluble
MGSDKIHHHHHHMPEPKQETDFTAPAFRWENQQLKAIYTPKNIYLDDLKGIERQKEKIIQNTLQFLNGLPANDVLLTGSRGTGKSSIVRALLTEYAPQGLRLIEIERDDLADLPKIQKIIQNRPEKYIVYCDDLAFNAEDENYRSLKSVLDGSLQSGSTNFIIYATSNRRHLLPEFMHENTPVTKVDVPQYTELHPQEAIEEKISLSDRFGLWLSFYPMDQNLYLEIVEHYLDKANMPFNDEVRAESLRWCQMRGQRSGRAAYQFSKHWIGLNALKDLSNN	not soluble
MGSDKIHHHHHHMPITQTTSAKKSKPIILMTMGQQDRNQHPYQVMTHKYMQPIVEIAGAIPLLMPTCFGIEDVDRYLDMVDGVYLSGAGSNIDPSLYGQENLTPEKSQDVNRDTVDLAIIAGALKRKLPILGICRGMQELNIALGGTLYQKVYSEPGFDDHREDPQTPNHVQYGPRHPIKTVPGSWLAKLIGDKTMVNSLHGQGICTLGKGLEALAYGEDGLIEAIHGPDYGQFILGVQWHPEWQANDNPDSIKLFQAFGSACRGEVSWQSANDAKLTA	not soluble
MGSDKIHHHHHHMPKEKYEPPDPRRMYTIMSSEEAANGKKSHWAELEISGKVRSLSSSLWSLTHLTALHLSDNSLSCIPSDIAKLHNLVYLDLSHNQIQSLPAELGNMVSLRELHLNYNQLRVLPFELGKLFQLQTLSLKGNPLTQDILNLCLEPDGTRRLLNYLLDNLSVSTEQPPPRSWIMLQEPDRTRPTALFSVMCYNVLCDKYATRQLYGYCPSWALNWDYRKKAIIQEILSCNADIISLQEVETEQYYSFFLVELKERGYNGFFSPKSRARTMSEQERKHVDGCAIFFKTEKFTLVQKHTVEFNQLAMANSEGSEAMLNRVMTKDNIGVAVLLELRKELIEMSSGKPHLGTEKQLILVANAHMHWDPEYSDVKLVQTMMFLSEVKNIIDKASRSLKSSVLGECGTIPLVLCADLNSLPDSGVVEYLSTGGVETNHKDFKELRYNESLTNFSCNGKNGMTNGRITHGFKLKSAYENGLMPYTNYTFDFKGIIDYIFYSKPQLNTLAILGPLDHHWLVENNISGCPHPLIPSDHFSLFAQLELLLPFLPQVNGIHLPGRR	not soluble
MGSDKIHHHHHHMPKERVDVLAYKQGLFNTREQAKRGVMAGLVVNVINGERYDKPGEKIDEATELKLKGDKLKYVSRGGLKLEKALKVFVISVDGQITLDIGASTGGFTDVMLQNGAQLVYAVDVGTNQLVWKLRQDERVCSMEQYNFRYAEPSDFERGQPTFASIDVSFISLNLILPALSKILTDGGQVVALIKPQFEAGREQIGKHGIVKDKSVHETVLETVTTFATNYGFTVKELDFSPIQGGHGNIEFLAYLEKSAQAQNQVLTKIKSIVEQAHKEFKKNEET	not soluble
MGSDKIHHHHHHMPKIWTERIFDDPEIYVLRIDDDRIRYFEAVWEIPEGISYNAYLVKLNGANVLIDGWKGNYAKEFIDALSKIVDPKEITHIIVNHTEPDHSGSLPATLKTIGHDVEIIASNFGKRLLEGFYGIKDVTVVKDGEEREIGGKKFKFVMTPWLHWPDTMVTYLDGILFSCDVGGGYLLPEILDDSNESVVERYLPHVTKYIVTVIGHYKNYILEGAEKLSSLKIKALLPGHGLIWKKDPQRLLNHYVSVAKGDPKKGKVTVIYDSMYGFVENVMKKAIDSLKEKGFTPVVYKFSDEERPAISEILKDIPDSEALIFGVSTYEAEIHPLMRFTLLEIIDKANYEKPVLVFGVHGWAPSAERTAGELLKETKFRILSFTEIKGSNMDERKIEEAISLLKKELE	soluble
